Reference: US20240117019A1 (UNIVERSITY OF GEORGIA RESEARCH FOUNDATION, published 2024)

Tests used:
[1] = molecular target: T1, recombinant His-tagged full-length pneumococcal surface protein A (PspA) from strain TCH8431 (serotype 19A) (Streptococcus pneumoniae strain TCH8431 …); experiment: ELISA on coated recombinant PspA, non-linear regression fit
T1 construct: range 1-725; also called recombinant PspA

[2] = molecular target: T2, PspA protein of pneumococcal strain TCH8431 (serotype 19A), native, in lysates or on whole bacteria (Streptococcus pneumoniae strain TCH8431 …); experiment: ELISA on plates coated with fixed whole bacteria, TCH8431 (19A), OD405
T2 construct: whole, on cells; also called PspA protein from strain TCH8431

[3] = molecular target: T3, MBP-PspA fragment 1-438 fusion protein (Streptococcus pneumoniae strain TCH8431 …, UniProt P0AEX9 27-392 = MBP); experiment: ELISA on coated MBP-PspA fragment, OD405
T3 construct: not shown: C-terminal His-tag encoded by the reverse primer PspA438-R

[4] = molecular target: T4, MBP-PspA fragment 1-512 fusion protein (Streptococcus pneumoniae strain TCH8431 …, UniProt P0AEX9 27-392 = MBP); experiment: ELISA on coated MBP-PspA fragment, OD405
T4 construct: not shown: C-terminal His-tag encoded by the reverse primer PspA512-R

B1: human monoclonal antibody PspA16 (antibody, V domains shown)
VH: QVQLVQSGPDVKKPGASVKVSCKTSGYTFTGYYMHWVRQAPGQGLEWMGWVNPNTGGTSYAQKFQGRVTVTRDTSISTVYMELSALGSDDTAIYFCARAWAPGAEYLHHWGQGTLVTVSS
VL: EIVMTQSPGTLSLSPGETATLSCRASQSVGSSYLAWYQQKPGQAPRLLIFGASNRATGIPVRFSASGSGTDFTLTISRLEPEDFAVYYCQQHDHSPFTFGPGTKVDLK
notes: also called mAb PspA16
[1]
  EC50: 0.026 mg/L
[2]
  EC50 (read off the curve): ~0.08 mg/L
[3]
  EC50 (read off the curve): ~0.04 mg/L
[4]
  EC50 (read off the curve): ~0.04 mg/L
